These results are taken from patent publication US20160200763.

Residue numbers refer to the chain shown, from its start. Names and notes keep the numbering of the source.

The target in one data set is T1, L807.
T1 chain: KEAPPSPPQSP

For the next data set, the target named is T2, pL807.
T2 chain: KEAPPSPPQSP

B1: Bacterially expressed Purified GSK-3β Wild-Type (WT) (protein)
chain: MSGRPRTTSFAESCKPVQQPSAFGSMKVSRDKDGSKVTTVVATPGQGPDRPQEVSYTDTKVIGNGSFGVVYQAKLCDSGELVAIKKVLQDKRFKNRELQIMRKLDHCNIVRLRYFFYSSGEKKDEVYLNLVLDYVPETVYRVARHYSRAKQTLPVIYVKLYMYQLFRSLAYIHSFGICHRDIKPQNLLLDPDTAVLKLCDFGSAKQLVRGEPNVSYICSRYYRAPELIFGATDYTSSIDVWSAGCVLAELLLGQPIFPGDSGVDQLVEIIKVLGTPTREQIREMNPNYTEFKFPQIKAHPWTKDSSGTGHFTSGVRVFRPRTPPEAIALCSRLLEYTPTARLTPLEACAHSFFDELRDPNVKLPNGRDTPALFNFTTQELSSNPPLATILIPPHARIQAAASTPTNATAASDANTGDRGQTNNAASASASNST
Regarding B1, the entries for the “peptide phosphorylation by GSK-3β (in vitro kinase assay, 32P-γ-ATP)” value with L807 and with pL807 were “shows that L807 is a substrate of GSK-3” and “pL807 is not a substrate of GSK-3”, respectively. For the same protein, the “peptide phosphorylation by WT GSK-3β (in vitro kinase assay)” value in the data set with L807 is “L807 is phosphorylated by both GSK-3 and F93A”.

B2: GSK-3β F93A mutant (in which Phe93 was replaced by alanine) (protein)
chain: B1 chain with F93A
Take B2: in the data set with L807, the “peptide phosphorylation by the F93A mutant (in vitro kinase assay)” value is “L807 is phosphorylated by both GSK-3 and F93A”.
